In patent US20140087995A1 (published 2014):
Numbered stars: 1 amine (or outer) side, 2 acyl side, 3 side chain; on linkers, the order of the positions; unused ones are H or OH. Bridge positions count the residues as written; N and C are the ends. Side chains are listed from the residue outwards. Ends that are not written are not given here. * marks the point of attachment. C20 diacid = O=C(O)CCCCCCCCCCCCCCCCCCC(=O)*; γGlu = O=C(O)[C@H](CCC(=O)[*:2])N[*:1]; AEEA = NCCOCCOCC(=O)O

T1: human calcitonin receptor (human, UniProt P30988 25-474)
T1 construct: whole, on cells; Assayed as cell membranes of BHK tk'ts 13 cells stably transfected with the human calcitonin receptor (Assay VII); also called hCTR; hCT
T1 sequence (looked up): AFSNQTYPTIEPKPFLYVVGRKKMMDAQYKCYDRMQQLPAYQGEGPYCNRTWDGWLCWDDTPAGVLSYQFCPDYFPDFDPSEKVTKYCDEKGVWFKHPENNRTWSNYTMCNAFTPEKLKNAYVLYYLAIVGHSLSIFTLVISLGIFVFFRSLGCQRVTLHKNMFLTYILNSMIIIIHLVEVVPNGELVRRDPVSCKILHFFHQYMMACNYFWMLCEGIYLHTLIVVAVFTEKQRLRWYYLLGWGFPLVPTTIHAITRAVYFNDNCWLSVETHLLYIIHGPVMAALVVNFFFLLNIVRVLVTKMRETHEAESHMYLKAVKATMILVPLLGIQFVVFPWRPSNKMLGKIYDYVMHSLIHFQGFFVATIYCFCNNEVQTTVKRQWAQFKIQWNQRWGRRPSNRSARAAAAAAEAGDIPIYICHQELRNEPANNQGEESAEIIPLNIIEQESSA

B1: N^ε1-[(4S)-4-carboxy-4-[[(4S)-4-carboxy-4-(19-carboxynonadecanoylamino)butanoyl]amino]butanoyl]-[His14,Arg17,Pro21,Pro27]-h-amylin (peptide)
peptide: K([γGlu-γGlu-C20 diacid])CNTATCATQRLAHFLRHSSPNFGAIPSSTNVGSNTY-NH2
modifications: disulfide 2-7; N-terminus assumed
SMILES: CC[C@H](C)[C@H](NC(=O)[C@H](C)NC(=O)CNC(=O)[C@H](Cc1ccccc1)NC(=O)[C@H](CC(N)=O)NC(=O)[C@@H]1CCCN1C(=O)[C@H](CO)NC(=O)[C@H](CO)NC(=O)[C@H](Cc1c[nH]cn1)NC(=O)[C@H](CCCNC(=N)N)NC(=O)[C@H](CC(C)C)NC(=O)[C@H](Cc1ccccc1)NC(=O)[C@H](Cc1c[nH]cn1)NC(=O)[C@H](C)NC(=O)[C@H](CC(C)C)NC(=O)[C@H](CCCNC(=N)N)NC(=O)[C@H](CCC(N)=O)NC(=O)[C@@H](NC(=O)[C@H](C)NC(=O)[C@@H]1CSSC[C@H](NC(=O)[C@@H](N)CCCCNC(=O)CC[C@H](NC(=O)CC[C@H](NC(=O)CCCCCCCCCCCCCCCCCCC(=O)O)C(=O)O)C(=O)O)C(=O)N[C@@H](CC(N)=O)C(=O)N[C@@H]([C@@H](C)O)C(=O)N[C@@H](C)C(=O)N[C@@H]([C@@H](C)O)C(=O)N1)[C@@H](C)O)C(=O)N1CCC[C@H]1C(=O)N[C@@H](CO)C(=O)N[C@@H](CO)C(=O)N[C@H](C(=O)N[C@@H](CC(N)=O)C(=O)N[C@H](C(=O)NCC(=O)N[C@@H](CO)C(=O)N[C@@H](CC(N)=O)C(=O)N[C@H](C(=O)N[C@@H](Cc1ccc(O)cc1)C(N)=O)[C@@H](C)O)C(C)C)[C@@H](C)O
notes: also called compound 92
B2: N^ε1-[(4S)-4-carboxy-4-(19-carboxynonadecanoylamino)butanoyl]-[His14,Arg17,Pro21,Pro27]-h-amylin (peptide)
peptide: K([γGlu-C20 diacid])CNTATCATQRLAHFLRHSSPNFGAIPSSTNVGSNTY-NH2
modifications: disulfide 2-7; N-terminus assumed
SMILES: CC[C@H](C)[C@H](NC(=O)[C@H](C)NC(=O)CNC(=O)[C@H](Cc1ccccc1)NC(=O)[C@H](CC(N)=O)NC(=O)[C@@H]1CCCN1C(=O)[C@H](CO)NC(=O)[C@H](CO)NC(=O)[C@H](Cc1c[nH]cn1)NC(=O)[C@H](CCCNC(=N)N)NC(=O)[C@H](CC(C)C)NC(=O)[C@H](Cc1ccccc1)NC(=O)[C@H](Cc1c[nH]cn1)NC(=O)[C@H](C)NC(=O)[C@H](CC(C)C)NC(=O)[C@H](CCCNC(=N)N)NC(=O)[C@H](CCC(N)=O)NC(=O)[C@@H](NC(=O)[C@H](C)NC(=O)[C@@H]1CSSC[C@H](NC(=O)[C@@H](N)CCCCNC(=O)CC[C@H](NC(=O)CCCCCCCCCCCCCCCCCCC(=O)O)C(=O)O)C(=O)N[C@@H](CC(N)=O)C(=O)N[C@@H]([C@@H](C)O)C(=O)N[C@@H](C)C(=O)N[C@@H]([C@@H](C)O)C(=O)N1)[C@@H](C)O)C(=O)N1CCC[C@H]1C(=O)N[C@@H](CO)C(=O)N[C@@H](CO)C(=O)N[C@H](C(=O)N[C@@H](CC(N)=O)C(=O)N[C@H](C(=O)NCC(=O)N[C@@H](CO)C(=O)N[C@@H](CC(N)=O)C(=O)N[C@H](C(=O)N[C@@H](Cc1ccc(O)cc1)C(N)=O)[C@@H](C)O)C(C)C)[C@@H](C)O
notes: also called compound 70
B3: N^ε21-[(4S)-4-carboxy-4-[[(4S)-4-carboxy-4-(19-carboxynonadecanoylamino)butanoyl]amino]butanoyl]-[Asp14,Arg17,Lys21,Pro27,Asp35]-h-amylin (peptide)
peptide: KCNTATCATQRLADFLRHSSK([γGlu-γGlu-C20 diacid])NFGAIPSSTNVGSDTY-NH2
modifications: disulfide 2-7; N-terminus assumed
SMILES: CC[C@H](C)[C@H](NC(=O)[C@H](C)NC(=O)CNC(=O)[C@H](Cc1ccccc1)NC(=O)[C@H](CC(N)=O)NC(=O)[C@H](CCCCNC(=O)CC[C@H](NC(=O)CC[C@H](NC(=O)CCCCCCCCCCCCCCCCCCC(=O)O)C(=O)O)C(=O)O)NC(=O)[C@H](CO)NC(=O)[C@H](CO)NC(=O)[C@H](Cc1c[nH]cn1)NC(=O)[C@H](CCCNC(=N)N)NC(=O)[C@H](CC(C)C)NC(=O)[C@H](Cc1ccccc1)NC(=O)[C@H](CC(=O)O)NC(=O)[C@H](C)NC(=O)[C@H](CC(C)C)NC(=O)[C@H](CCCNC(=N)N)NC(=O)[C@H](CCC(N)=O)NC(=O)[C@@H](NC(=O)[C@H](C)NC(=O)[C@@H]1CSSC[C@H](NC(=O)[C@@H](N)CCCCN)C(=O)N[C@@H](CC(N)=O)C(=O)N[C@@H]([C@@H](C)O)C(=O)N[C@@H](C)C(=O)N[C@@H]([C@@H](C)O)C(=O)N1)[C@@H](C)O)C(=O)N1CCC[C@H]1C(=O)N[C@@H](CO)C(=O)N[C@@H](CO)C(=O)N[C@H](C(=O)N[C@@H](CC(N)=O)C(=O)N[C@H](C(=O)NCC(=O)N[C@@H](CO)C(=O)N[C@@H](CC(=O)O)C(=O)N[C@H](C(=O)N[C@@H](Cc1ccc(O)cc1)C(N)=O)[C@@H](C)O)C(C)C)[C@@H](C)O
notes: also called compound 59
B4: N^ε1-[2-[2-[2-(19-carboxynonadecanoylamino)ethoxy]ethoxy]acetyl]-[His14,Arg17,Pro21,Pro27]-h-amylin (peptide)
peptide: K([AEEA-C20 diacid])CNTATCATQRLAHFLRHSSPNFGAIPSSTNVGSNTY-NH2
modifications: disulfide 2-7; N-terminus assumed
SMILES: CC[C@H](C)[C@H](NC(=O)[C@H](C)NC(=O)CNC(=O)[C@H](Cc1ccccc1)NC(=O)[C@H](CC(N)=O)NC(=O)[C@@H]1CCCN1C(=O)[C@H](CO)NC(=O)[C@H](CO)NC(=O)[C@H](Cc1c[nH]cn1)NC(=O)[C@H](CCCNC(=N)N)NC(=O)[C@H](CC(C)C)NC(=O)[C@H](Cc1ccccc1)NC(=O)[C@H](Cc1c[nH]cn1)NC(=O)[C@H](C)NC(=O)[C@H](CC(C)C)NC(=O)[C@H](CCCNC(=N)N)NC(=O)[C@H](CCC(N)=O)NC(=O)[C@@H](NC(=O)[C@H](C)NC(=O)[C@@H]1CSSC[C@H](NC(=O)[C@@H](N)CCCCNC(=O)COCCOCCNC(=O)CCCCCCCCCCCCCCCCCCC(=O)O)C(=O)N[C@@H](CC(N)=O)C(=O)N[C@@H]([C@@H](C)O)C(=O)N[C@@H](C)C(=O)N[C@@H]([C@@H](C)O)C(=O)N1)[C@@H](C)O)C(=O)N1CCC[C@H]1C(=O)N[C@@H](CO)C(=O)N[C@@H](CO)C(=O)N[C@H](C(=O)N[C@@H](CC(N)=O)C(=O)N[C@H](C(=O)NCC(=O)N[C@@H](CO)C(=O)N[C@@H](CC(N)=O)C(=O)N[C@H](C(=O)N[C@@H](Cc1ccc(O)cc1)C(N)=O)[C@@H](C)O)C(C)C)[C@@H](C)O
notes: also called compound 90

Biological target: T1, human calcitonin receptor
Experiment: SPA competition vs 125I-calcitonin, membranes of BHK cells with human calcitonin receptor (Assay VII)
Outline: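 BHK hCTR membranes 35 ng/μL + SPA beads 0.05 mg/well; buffer 50 mM Hepes pH 7.4, 1 mM CaCl2, 5 mM MgCl₂, 0.1% OA, 0.02% Tween20. 120 min, 25° C., shaking. Scintillation count; IC50 by one-site binding competition.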

For B1, which IC50 is on record?
The IC50 was 26 nM.

B2 was tested. Which IC50 did it give?
Its IC50 is 10.3 nM.

How did the IC50 turn out when B3 was run?
Its IC50 is 5.14 nM.

How did the IC50 turn out when B4 was run?
Its IC50 is 2.57 nM.

Biological target: T1, human calcitonin receptor
Experiment: IC50 at hCTR divided by IC50 at hAmylin-R (SPA competition assays V and VII)
Outline: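 Competition binding by SPA uses membrane preparations (35 ng/μL final) in pH 7.4 Hepes buffer with 1 mM CaCl2 and 5 mM MgCl₂. Incubation lasts 120 min at 25° C, and IC₅₀ comes from one-site fitting.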

B1 was tested. Which “Ratio hCT/hAmylin binding” value did it give?
The value was 145.

With B2 as the binder, how does the “Ratio hCT/hAmylin binding” value read?
Its value is 60.8.

How did the “Ratio hCT/hAmylin binding” value turn out when B3 was run?
The value was 4.3.

How did the “Ratio hCT/hAmylin binding” value turn out when B4 was run?
Its value is 42.2.
